This note sets out measurements from the Immune Epitope Database (IEDB).

pKd: −log10 of the molar value.

Usually pKd stands for the Kd on a negative log10 scale, so that one unit is a factor of ten.

One experiment concerns the target HLA-B*51:01. Kind of experiment: IEDB peptide-MHC binding, purified MHC/competitive/radioactivity; filed as Kd, often an IC50 or EC50 that approximates it; ≥ and ≤ were set here for values at or beyond the usual limits of such assays.
The target in the next experiment is HLA-B*53:01. The experiment is described as above. Conditions: source organism: Dengue virus 2 Jamaica/1409/1983.
Experiment [1] has as its target HLA-B*40:01. Described as above.
The next experiment deals with HLA-B*44:03. The experiment is described as above.
Another experiment has as its target HLA-B*44:02. Described as above.
Experiment [2] deals with HLA-A*02:01. The description is as above.
For a further experiment, the target named is HLA-B*18:01. Put plainly: IEDB peptide-MHC binding, purified MHC/direct/fluorescence; filed as Kd, often an IC50 or EC50 that approximates it; ≥ and ≤ were set here for values at or beyond the usual limits of such assays.
In experiment [3] the target is HLA-B*40:01. The description is as above. To be noted: source organism: Mammarenavirus lassaense.
The target of experiment [4] is HLA-A*02:01. Put plainly: IEDB peptide-MHC binding, purified MHC/competitive/fluorescence; filed as Kd, often an IC50 or EC50 that approximates it; ≥ and ≤ were set here for values at or beyond the usual limits of such assays.
The target of the next experiment is HLA-A*02:02. Kind of experiment: IEDB peptide-MHC binding, purified MHC/competitive/radioactivity; filed as Kd, often an IC50 or EC50 that approximates it; ≥ and ≤ were set here for values at or beyond the usual limits of such assays. To be noted: source organism: Vaccinia virus WR.
The target in the next experiment is HLA-A*02:03. The description is as above. Conditions: source organism: Vaccinia virus WR.
Another experiment addresses HLA-A*02:06. Described as above. Conditions: source organism: Vaccinia virus WR.
In a further experiment the target is HLA-A*01:01. Described as above.
Another experiment concerns the target HLA-A*26:01. Described as above.
For another experiment, the target named is HLA-A*29:02. Described as above.
In another experiment the target is HLA-A*30:01. The experiment is described as above.
For another experiment, the target named is HLA-A*30:02. Described as above.
For another experiment, the target named is HLA-A*32:01. The description is as above.
Another experiment deals with HLA-B*27:05. Put plainly: IEDB peptide-MHC binding, purified MHC/direct/fluorescence; filed as Kd, often an IC50 or EC50 that approximates it; ≥ and ≤ were set here for values at or beyond the usual limits of such assays. To be noted: source organism: Mammarenavirus lassaense.
A further experiment concerns the target HLA-B*48:01. Described as above. To be noted: source organism: Mammarenavirus lassaense.
The next experiment has as its target HLA-B*07:02. Kind of experiment: IEDB peptide-MHC binding, purified MHC/competitive/radioactivity; filed as Kd, often an IC50 or EC50 that approximates it; ≥ and ≤ were set here for values at or beyond the usual limits of such assays.
The next experiment addresses HLA-B*35:01. The experiment is described as above.
A further experiment has as its target HLA-B*57:01. Put plainly: IEDB peptide-MHC binding, purified MHC/direct/fluorescence; filed as Kd, often an IC50 or EC50 that approximates it; ≥ and ≤ were set here for values at or beyond the usual limits of such assays. To be noted: source organism: Entamoeba histolytica HM-1:IMSS.
A further experiment addresses HLA-B*58:01. The experiment is described as above. To be noted: source organism: Entamoeba histolytica HM-1:IMSS.
Where [5] appears, read: source organism: Dengue virus 2 Jamaica/1409/1983.
[6] abbreviates: source organism: Dengue virus 1 Brazil/97-11/1997.
Setting [7] is: source organism: Dengue virus 3 Martinique/1243/1999.
Where [8] appears, read: source organism: Dengue virus 4 Philippines/H241/1956.
Where [9] appears, read: source organism: Mammarenavirus choriomeningitidis.
Setting [10] is: source organism: Vaccinia virus WR.
The mark [11] stands for this setting: source organism: Mammarenavirus whitewaterense.

With NAWKVSCTI, the pKd with HLA-B*51:01 (setting [5]) was 7.26; with HLA-B*53:01 it was 7.44.
As for NEAKITDIM, the results for the pKd with HLA-B*40:01 [1] (setting [6]) and with HLA-B*44:03 (setting [6]) were 7.08 and 5.38, respectively.
In the case of NEGVMAVGL, the results for the pKd with HLA-B*40:01 [1] (setting [7]) and with HLA-B*44:03 (setting [7]) were 6.65 and 5.74, respectively.
In the case of NENDQYIYM, the pKd with HLA-B*44:02 (setting [5]) is 7.59; with HLA-B*44:03 (setting [5]), 6.68.
Consider NERRAWNFL, for which the pKd with HLA-B*44:03 (setting [8]) was 5.68.
With NMETLNMTM, in the experiment with HLA-A*02:01 [2] (source organism: Lassa virus Josiah), the pKd is 5.86.
Take PEDPVEIAL: the pKd with HLA-B*18:01 (source organism: Mammarenavirus lassaense) is not above 4.70; in the experiment with HLA-B*40:01 [3] it was 6.80.
As for QEHETSWHY, the pKd with HLA-B*44:02 (setting [5]) was 7.33; in the experiment with HLA-B*44:03 (setting [5]) it was 7.53.
Turning to QIFNIISYI, the pKd in the experiment with HLA-A*02:01 [4] (source organism: Variola virus) is 7.51; with HLA-A*02:02 it was 6.95; in the experiment with HLA-A*02:03, 7.82; with HLA-A*02:06 it was 8.75.
With QLQSPGVADY, the pKd with HLA-A*01:01 (setting [9]) was 6.54; in the experiment with HLA-A*26:01 (setting [9]), 5.11; with HLA-A*29:02 (setting [9]), not above 4.60; with HLA-A*30:01 (setting [9]), not above 4.15; with HLA-A*30:02 (setting [9]), 7.37; with HLA-A*32:01 (setting [9]), not above 4.16.
In the case of RELKCGSGI, the pKd with HLA-B*40:01 [1] (setting [6]) was 7.86; with HLA-B*44:02 (setting [6]) it was 6.92.
For RKLLESQGR, the pKd is 6.35 in the experiment with HLA-B*27:05 and not above 4.70 in the experiment with HLA-B*48:01.
As to RTCSNWVPL, the pKd in the experiment with HLA-A*02:01 [4] (source organism: Vaccinia virus Ankara) was 6.48.
On to SEMAEALKGM, for which the figures for the pKd with HLA-B*40:01 [1] (setting [6]), in the experiment with HLA-B*44:02 (setting [6]) and with HLA-B*44:03 (setting [6]) were 6.21, 7.17 and 7.65, respectively.
For SEMGANFRAD, the pKd with HLA-B*44:02 (setting [6]) was 6.86.
SMRRNYFTAEV: in the experiment with HLA-A*02:01 [4] (source organism: Influenza A virus (A/quail/Hong Kong/SF550/00(H6N1))), the pKd was 5.87.
For the sequence VEMGEAAAIF, the results for the pKd in the experiment with HLA-B*40:01 [1] (setting [8]), in the experiment with HLA-B*44:02 (setting [8]) and with HLA-B*44:03 (setting [8]) were 6.01, 7.89 and 6.78, respectively.
VEPWLRGNQF: the figures for the pKd in the experiment with HLA-B*40:01 [1] (setting [6]) and with HLA-B*44:02 (setting [6]) were 5.42 and 7.14, respectively.
For VPLLALGCY, the pKd with HLA-B*51:01 (setting [6]) is 4.83.
Turning to VPSIKAGNDI, the pKd in the experiment with HLA-B*07:02 (setting [5]) was 5.67; with HLA-B*51:01 (setting [5]), 5.07; in the experiment with HLA-B*53:01, not above 4.22.
WEALDTMYV: in the experiment with HLA-B*18:01 (source organism: West Nile virus), the pKd is 6.25.
For the sequence WHYDQENPY, the pKd with HLA-B*35:01 (setting [8]) is 5.81.
On to WMMAMRYPITA, for which, in the experiment with HLA-A*02:01 [4] (source organism: Influenza A virus (A/chicken/Fujian/25/00(H9N2))), the pKd is 8.82.
With WPISKMDIGV, in the experiment with HLA-B*51:01 (source organism: Dengue virus 1 Singapore/S275/1990), the pKd was 4.97.
In the case of YLLFASMGFK, the pKd in the experiment with HLA-A*02:01 [2] (setting [10]) was 5.59; with HLA-B*07:02 (setting [10]) it was not above 4.16; with HLA-B*35:01 (setting [10]), not above 4.16.
Turning to YLRPYMHGY, the pKd was 5.26 in the experiment with HLA-B*57:01 and 4.92 with HLA-B*58:01.
For YVSSIFLHL, the pKd is 6.29 with HLA-A*01:01 (setting [11]); 5.73 in the experiment with HLA-A*26:01 (setting [11]); 7.80 with HLA-A*29:02 (setting [11]); 5.32 with HLA-A*30:01 (setting [11]); 4.90 with HLA-A*30:02 (setting [11]); not above 4.29 with HLA-A*32:01 (setting [11]).
